For one protein, K0.5 results are on record in PMC7315737, “The putative Escherichia coli dehydrogenase YjhC metabolises two dehydrated forms of N-acetylneuraminate produced by some sialidases” (Bioscience Reports, 2020).

What all share (type): biochemical, Escherichia coli
Substrate in data set [1]: [H][C@@]1([C@H](O)[C@H](O)CO)OC(C(=O)O)=C[C@H](O)[C@H]1NC(C)=O
Nature of the data set: purified protein. As to conditions: 50 µM NAD+, 30 mM HEPES pH 7.5, 10 mM KCl, 1 mM MgCl2, 37°C, sigmoidal, Hill coefficient 2.59.

Substrate in data set [2]: CC(=O)N[C@H]1[C@H]2O[C@@](C(=O)O)(C[C@@H]1O)O[C@@H]2[C@H](O)CO
Nature of the data set: purified protein. The conditions noted are these: 50 µM NAD+, 30 mM HEPES pH 7.5, 10 mM KCl, 1 mM MgCl2, 37°C, sigmoidal, Hill coefficient 2.20.

Substrate in data set [3]: NC(=O)c1ccc[n+]([C@@H]2O[C@H](COP(=O)(O)OP(=O)(O)OC[C@H]3O[C@@H](n4cnc5c(N)ncnc54)[C@H](O)[C@@H]3O)[C@@H](O)[C@H]2O)c1
Nature of the data set: Neu5Ac formation versus NAD+ concentration, endpoint assay. As to conditions: 1 mM 2,7-AN, 0.45 µM YjhC, 30 mM HEPES pH 7.5, 10 mM KCl, 1 mM MgCl2, 37°C, Ka is a half-activation constant, not an association constant, varied: cofactor.

B1: YjhC (Escherichia coli K-12) (protein)
chain: MINYGVVGVGYFGAELARFMNMHDNAKITCVYDPENGENIARELQCINMSSLDALVSSKLVDCVIVATPNYLHKEPVIKAAKNKKHVFCEKPIALSYEDCVDMVKACKEAGVTFMAGHIMNFFNGVQYARKLIKEGVIGEILSCHTKRNGWENKQERLSWKKMKEQSGGHLYHHIHELDCVQHLLGEIPETVTMIGGNLAHSGPGFGNEDDMLFMTLEFPSGKLATLEWGSAFNWPEHYVIINGTKGSIKIDMQETAGSLRIGGQTKHFLVHETQEEDDDRRKGNMTSEMDGAIAYGHPGKKTPLWLASLIRKETLFLHNILCGAKPEEDYIDLLNGEAAMSAIATADAATLSRSQDRKVKISEIIKHTSVM
notes: full-length ORF from ASKA library in pCA24N, N-terminal His6-tag kept, expressed in E. coli BL21
In the case of B1, the K0.5 in the data set “purified protein [1]” was determined as 0.30 mM; in the data set “purified protein [2]”, 0.45 mM; in data set [3], 0.84 µM.
